Columns and labels:
[1] = in situ 17C-sphingosine labeling, LC/MS of 17C-Sph-C16:0-ceramide; details: glycan lost; control: WT CerS6 in CerS6 KO HCT116
[2] = Western blot of microsomal fractions; details: glycan lost; control: WT CerS6 microsomes
[3] = in vitro microsomes, NBD-sphingosine + C16:0-CoA, HPLC; details: glycan lost; control: WT CerS6 microsomes

B1: ceramide synthase 6 (CerS6): N18A (protein)
parent chain: MAGILAWFWNERFWLPHNVTWADLKNTEEATFPQAEDLYLAFPLAFCIFMVRLIFERFVAKPCAIALNIQANGPQIAPPNAILEKVFTAITKHPDEKRLEGLSKQLDWDVRSIQRWFRQRRNQEKPSTLTRFCESMWRFSFYLYVFTYGVRFLKKTPWLWNTRHCWYNYPYQPLTTDLHYYYILELSFYWSLMFSQFTDIKRKDFGIMFLHHLVSIFLITFSYVNNMARVGTLVLCLHDSADALLEAAKMANYAKFQKMCDLLFVMFAVVFITTRLGIFPLWVLNTTLFESWEIVGPYPSWWVFNLLLLLVQGLNCFWSYLIVKIACKAVSRGKVSKDDRSDIESSSDEEDSEPPGKNPHTATTTNGTSGTNGYLLTGSCSMDD
Question: For B1, which enzymatic_activity [1] is on record?
Answer: Its enzymatic_activity is “decreases, was approximately equal to that of LacZ expressing cells”.

Question: And the expression_or_secretion [2]?
Answer: The expression_or_secretion was “increases”.

Question: What about the enzymatic_activity [3] of the same protein?
Answer: Its enzymatic_activity is “decreases, N18A CerS6 activity is not statistically different than that of the LacZ microsomes”.
